Laboratory results reported in the RNAGym collection of RNA variant scans (doi:10.7554/elife.80360).

B1: HDV Ribozyme (parent)
chain: GGCCGGCAUGGUCCCAGCCUCCUCGCUGGCGCCGGCUGGGCAACAUUCCGAGGGGACCGUCCCCUCGGUAAUGGCGAAUGGGACCCA

Variants of: B1
Assay: self-cleavage, relative activity (ratio to wild type); higher = more cleavage; co-transcriptional

Variant	self-cleavage
GGCCGGCAUGGUCCCAGCCUCCUCGCUGGCGCCGGCUGGGCAACAUUCCGAGGGGACCGUCCCCUCUGUAAUGACGAAUGGGACCCA [G67U G74A]	0.379
GGCCGGCAUGGUCCCAGCCUCCUCGCUGGCGCCGGCUGGGCAACAUUCCGAGGGGACCGUCCCCUCUGUAAUGCCGAAUGGGACCCA [G67U G74C]	0.151
GGCCGGCAUGGUCCCAGCCUCCUCGCUGGCGCCGGCUGGGCAACAUUCCGAGGGGACCGUCCCCUCAGUACUGGCGAAUGGGACCCA [G67A A71C]	0.752
GGCCGGCAUGGUCCCAGCCUCCUCGCUGGCGCCGGCUGGGCAACAUUCCGAGGGGACCGUCCCCUCCGUAAUGGCGAUUGGGACCCA [G67C A78U]	0.225
GGCCGGCAUGGUCCCAGCCUCCUCGCUGGCGCCGGCUGGGCAACAUUCCGAGGGGACCGUCCCCUCGCUUAUGGCGAAUGGGACCCA [G68C A70U]	0.778
GGCCGGCAUGGUCCCAGCCUCCUCGCUGGCGCCGGCUGGGCAACAUUCCGAGGGGACCGUCCCCUUGGGAAUGGCGAAUGGGACCCA [C66U U69G]	0.867
GGCCGGCAUGGUCCCAGCCUCCUCGCUGGCGCCGGCUGGGCAACAUUCCGAGGGGACCGUCCCCUCGCUAAUGGCGAAUGGGACCCU [G68C A87U]	0.799
GGCCGGCAUGGUCCCAGCCUCCUCGCUGGCGCCGGCUGGGCAACAUUCCGAGGGGACCGUCCCCUCGCUAGUGGCGAAUGGGACCCA [G68C A71G]	0.831
GGCCGGCAUGGUCCCAGCCUCCUCGCUGGCGCCGGCUGGGCAACAUUCCGAGGGGACCGUCCCCUCUGUAAAGGCGAAUGGGACCCA [G67U U72A]	0.665
GGCCGGCAUGGUCCCAGCCUCCUCGCUGGCGCCGGCUGGGCAACAUUCCGAGGGGACCGUCCCCUUGGUAAUGGCGAACGGGACCCA [C66U U79C]	0.571
GGCCGGCAUGGUCCCAGCCUCCUCGCUGGCGCCGGCUGGGCAACAUUCCGAGGGGACCGUCCCCUUGGUAAUGGCGAAUUGGACCCA [C66U G80U]	0.295
GGCCGGCAUGGUCCCAGCCUCCUCGCUGGCGCCGGCUGGGCAACAUUCCGAGGGGACCGUCCCCUCUGUAAUGGCGCAUGGGACCCA [G67U A77C]	0.373
GGCCGGCAUGGUCCCAGCCUCCUCGCUGGCGCCGGCUGGGCAACAUUCCGAGGGGACCGUCCCCUCAGUAAUGGCGAAUGGGACCCU [G67A A87U]	1.06
GGCCGGCAUGGUCCCAGCCUCCUCGCUGGCGCCGGCUGGGCAACAUUCCGAGGGGACCGUCCCCUCAGUAAUGGCGAAUGGGACCCC [G67A A87C]	0.956
GGCCGGCAUGGUCCCAGCCUCCUCGCUGGCGCCGGCUGGGCAACAUUCCGAGGGGACCGUCCCCUCGAUAAUGGCGAAAGGGACCCA [G68A U79A]	0.554
GGCCGGCAUGGUCCCAGCCUCCUCGCUGGCGCCGGCUGGGCAACAUUCCGAGGGGACCGUCCCCUCUGUAAUGGUGAAUGGGACCCA [G67U C75U]	0.104

Variant	self-cleavage
GGCCGGCAUGGUCCCAGCCUCCUCGCUGGCGCCGGCUGGGCAACAUUCCGAGGGGACCGUCCCCUCUGUAAUGGCGAAUGAGACCCA [G67U G81A]	0.254
GGCCGGCAUGGUCCCAGCCUCCUCGCUGGCGCCGGCUGGGCAACAUUCCGAGGGGACCGUCCCCUCAGUAAUGGCGAAUGGGCCCCA [G67A A83C]	0.464
GGCCGGCAUGGUCCCAGCCUCCUCGCUGGCGCCGGCUGGGCAACAUUCCGAGGGGACCGUCCCCUCCGUAAUGGCGCAUGGGACCCA [G67C A77C]	0.227
GGCCGGCAUGGUCCCAGCCUCCUCGCUGGCGCCGGCUGGGCAACAUUCCGAGGGGACCGUCCCCUCGAGAAUGGCGAAUGGGACCCA [G68A U69G]	0.917
GGCCGGCAUGGUCCCAGCCUCCUCGCUGGCGCCGGCUGGGCAACAUUCCGAGGGGACCGUCCCCUCAGUAAUGGGGAAUGGGACCCA [G67A C75G]	0.181
GGCCGGCAUGGUCCCAGCCUCCUCGCUGGCGCCGGCUGGGCAACAUUCCGAGGGGACCGUCCCCUCGAUAAUGGCGAAUGGGACCCA [G68A]	0.952
GGCCGGCAUGGUCCCAGCCUCCUCGCUGGCGCCGGCUGGGCAACAUUCCGAGGGGACCGUCCCCUCGCUAAUGGCGAAUGGGACCCA [G68C]	0.911
GGCCGGCAUGGUCCCAGCCUCCUCGCUGGCGCCGGCUGGGCAACAUUCCGAGGGGACCGUCCCCUCCGAAAUGGCGAAUGGGACCCA [G67C U69A]	0.96
GGCCGGCAUGGUCCCAGCCUCCUCGCUGGCGCCGGCUGGGCAACAUUCCGAGGGGACCGUCCCCUCCGCAAUGGCGAAUGGGACCCA [G67C U69C]	1
GGCCGGCAUGGUCCCAGCCUCCUCGCUGGCGCCGGCUGGGCAACAUUCCGAGGGGACCGUCCCCUCCGGAAUGGCGAAUGGGACCCA [G67C U69G]	0.943
GGCCGGCAUGGUCCCAGCCUCCUCGCUGGCGCCGGCUGGGCAACAUUCCGAGGGGACCGUCCCCUCGCUAAUGGCGAAUGGGUCCCA [G68C A83U]	0.318
GGCCGGCAUGGUCCCAGCCUCCUCGCUGGCGCCGGCUGGGCAACAUUCCGAGGGGACCGUCCCCUCUGUAAUGGCGAUUGGGACCCA [G67U A78U]	0.253
GGCCGGCAUGGUCCCAGCCUCCUCGCUGGCGCCGGCUGGGCAACAUUCCGAGGGGACCGUCCCCUCGAUAAUGGCGAAUGGGACGCA [G68A C85G]	0.774
GGCCGGCAUGGUCCCAGCCUCCUCGCUGGCGCCGGCUGGGCAACAUUCCGAGGGGACCGUCCCCUCUGUAAUGGCGAAUGGGACCCU [G67U A87U]	0.898
GGCCGGCAUGGUCCCAGCCUCCUCGCUGGCGCCGGCUGGGCAACAUUCCGAGGGGACCGUCCCCUCUGUAAUGGCGAAUGGGACCCG [G67U A87G]	0.91
GGCCGGCAUGGUCCCAGCCUCCUCGCUGGCGCCGGCUGGGCAACAUUCCGAGGGGACCGUCCCCUCGCUAAUGGCGAGUGGGACCCA [G68C A78G]	0.426
